Source: patent publication US20210318322A1 (Janssen / Centocor, published 2021)
Where two headings read alike, the source gives them in different places.

What was measured:
[1] = molecular target: T1, human VISTA extracellular domain (human, UniProt Q9H7M9 33-194); assay: SPR ProteOn
T1 construct: also called human VISTA ECD; SB0361 (human)

[2] = molecular target: T2, cynomolgus VISTA extracellular domain (cynomolgus, UniProt A0A7N9IB00 33-194); assay: SPR ProteOn
T2 construct: extracellular domain; also called cyno VISTA ECD; SB0361 (cyno (cynomolgus))
T2 sequence: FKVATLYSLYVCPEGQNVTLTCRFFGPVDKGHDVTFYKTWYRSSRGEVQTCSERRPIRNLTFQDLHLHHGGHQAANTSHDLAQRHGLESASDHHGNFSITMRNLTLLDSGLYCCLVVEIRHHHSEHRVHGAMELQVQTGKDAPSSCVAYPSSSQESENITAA

[3] = molecular target: T3, human VISTA expressed on cells (human, UniProt Q9H7M9 33-295); assay: cell-based or functional assay
T3 sequence: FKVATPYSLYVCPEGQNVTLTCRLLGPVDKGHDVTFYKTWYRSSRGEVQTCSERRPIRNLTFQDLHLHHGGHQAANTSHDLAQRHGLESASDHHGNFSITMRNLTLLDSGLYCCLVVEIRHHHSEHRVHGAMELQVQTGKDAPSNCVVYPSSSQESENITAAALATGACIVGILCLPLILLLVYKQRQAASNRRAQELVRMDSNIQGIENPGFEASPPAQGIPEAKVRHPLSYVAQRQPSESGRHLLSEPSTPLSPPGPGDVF

[4] = molecular target: T3, human VISTA expressed on cells; assay: cell-based or functional assay; remark: listed apart in the source
[5] = molecular target: T3, human VISTA expressed on cells; assay: cell-based or functional assay; remark: listed apart in the source
[6] = molecular target: T2, cynomolgus VISTA extracellular domain; assay: SPR ProteOn; remark: listed apart in the source

Kd [1]	koff [1]	kon [1]	Kd [2]	koff [2]	kon [2]	IC50, CPM in the MLR [3]	IC50, IFN-gamma in the MLR [3]	IC50, CPM in the SEB assay [4]	IC50, IFN-gamma in the SEB assay [4]	EC50 IFN-gamma production, MLR [5]	EC50 proliferation, MLR [5]	Kd [6]	Binder
0.126 nM	6.99e-05 s⁻¹	554000 M⁻¹ s⁻¹	0.192 nM	8.53e-05 s⁻¹	443000 M⁻¹ s⁻¹	-0.54 log10 of antibody concentration	0.22 log10 of antibody concentration	-1.12 log10 of antibody concentration	0.05 log10 of antibody concentration	1.67 µg/mL	0.29 µg/mL		VSTB95 (antibody, human IgG1, kappa, V domains shown, also called S16; INX Code 16) VH: EVQLVESGGGLVQPGGSLRLSCAASGFTFRNYGMSWVRQAPGKGLEWVASIISGGSYTYYPDSVKGRFTISRDNAKNSLYLQMNSLRAEDTAVYYCARIYDHDGDYYAMDYWGQGTTVTVSS VL: DIVMTQSPLSLPVTPGEPASISCRSSQSIVHSNGNTYLEWYLQKPGQSPQLLIYKVSNRFSGVPDRFSGSGSGTDFTLKISRVEAEDVGVYYCFQGSHVPWTFGQGTKLEIKR
0.213 nM	0.000267 s⁻¹	1.25e+06 M⁻¹ s⁻¹	0.137 nM	0.000117 s⁻¹	851000 M⁻¹ s⁻¹	-0.78 log10 of antibody concentration	-0.16 log10 of antibody concentration	-1.44 log10 of antibody concentration	-0.35 log10 of antibody concentration	0.69 µg/mL	0.17 µg/mL		VSTB116 (antibody, human IgG1, kappa, also called S5; INX Code 5) heavy: not shown light: DIQMTQSPSSLSASVGDRVTITCRASQSINTNLNWYQQKPGKAPKLLIYAASSLQSGVPSRFSGSGSGTDFTLTISSLQPEDFATYYCQQARDTPITFGQGTKVEIKRTVAAPSVFIFPPSDEQLKSGTASVVCLLNNFYPREAKVQWKVDNALQSGNSQESVTEQDSKDSTYSLSSTLTLSKADYEKHKVYACEVTHQGLSSPVTKSFNRGEC
												0.0866 nM	VSTB174 (antibody, human IgG1, kappa) heavy: not shown light: DIQMTQSPSSLSASVGDRVTITCRASQSIDTRLNWYQQKPGKAPKLLIYSASSLQSGVPSRFSGSGSGTDFTLTISSLQPEDFATYYCQQSAYNPITFGQGTKVEIKRTVAAPSVFIFPPSDEQLKSGTASVVCLLNNFYPREAKVQWKVDNALQSGNSQESVTEQDSKDSTYSLSSTLTLSKADYEKHKVYACEVTHQGLSSPVTKSFNRGEC

The remaining lines, values behind:

Binder	Kd [1]	koff [1]	kon [1]	Kd [2]	koff [2]	kon [2]	IC50, CPM in the MLR [3]	IC50, IFN-gamma in the MLR [3]	IC50, CPM in the SEB assay [4]	IC50, IFN-gamma in the SEB assay [4]	EC50 IFN-gamma production, MLR [5]	EC50 proliferation, MLR [5]	Kd [6]
VSTB50 (antibody, human IgG1, kappa, V domains shown, also called S41; INX Code 41) VH: QVQLVQSGSELKKPGASVKVSCKASGYTFTNYGLNWVRQAPGQGLEWMGWINPYTGEPTYADDFKGRFVFSLDTSVSTAYLQICSLKAEDTAVYYCAREGYGNYIFPYWGQGTLVTVSS VL: DIVMTQTPLSLSVTPGQPASISCRASESVDTYANSLMHWYLQKPGQPPQLLIYRASNLESGVPDRFSGSGSGTDFTLKISRVEAEDVGVYYCQQTNEDPRTFGQGTKLEIKR	0.632 nM	0.000305 s⁻¹	482000 M⁻¹ s⁻¹	0.31 nM	0.000219 s⁻¹	708000 M⁻¹ s⁻¹	-0.12 log10 of antibody concentration	0.06 log10 of antibody concentration	-0.74 log10 of antibody concentration	1.69 log10 of antibody concentration	1.14 µg/mL	0.77 µg/mL	
VSTB53 (antibody, human IgG1, kappa, V domains shown, also called S43; INX Code 43) VH: QVQLVQSGAEVKKPGASVKVSCKASGYTFTHYTIHWVRQAPGQGLEWMGYIIPSSGYSEYNQKFKDRVTMTRDTSTSTVYMELSSLRSEDTAVYYCARGAYDDYYDYYAMDYWGQGTLVTVSS VL: DIVMTQSPLSLPVTPGEPASISCRSSQTIVHSNGNTYLEWYLQKPGQSPQLLIYKVSNRFSGVPDRFSGSGSGTDFTLKISRVEAEDVGVYYCFQASHVPWTFGQGTKLEIKR	0.0264 nM	3.3e-05 s⁻¹	1.25e+06 M⁻¹ s⁻¹	0.0528 nM	6.22e-05 s⁻¹	1.18e+06 M⁻¹ s⁻¹	-0.33 log10 of antibody concentration	0.27 log10 of antibody concentration	-1.06 log10 of antibody concentration	-1.05 log10 of antibody concentration	1.88 µg/mL	0.47 µg/mL	
VSTB60 (antibody, human IgG1, kappa, V domains shown, also called S47; INX Code 47) VH: QVQLVQSGSELKKPGASVKVSCKASGYTFTNYGMTWVRQAPGQGLEWMGWINTYTGESTYADDFKGRFVFSLDTSVSTAYLQICSLKAEDTAVYYCARDYYGIYVSAYWGQGTLVTVSS VL: DIVMTQTPLSLSVTPGQPASISCRASESVDNYANSFMHWYLQKPGQSPQLLIYRASNLESGVPDRFSGSGSGTDFTLKISRVEAEDVGVYYCQQSHEDPYTFGQGTKLEIKR	0.356 nM	0.000183 s⁻¹	514000 M⁻¹ s⁻¹	0.252 nM	0.000143 s⁻¹	569000 M⁻¹ s⁻¹	0.02 log10 of antibody concentration	0.4 log10 of antibody concentration			2.48 µg/mL	1.04 µg/mL	
VSTB112 (antibody, human IgG1, kappa, also called S2; INX Code 2) heavy: not shown light: DIQMTQSPSSLSASVGDRVTITCRASQSIDTRLNWYQQKPGKAPKLLIYSASSLQSGVPSRFSGSGSGTDFTLTISSLQPEDFATYYCQQSAYNPITFGQGTKVEIKRTVAAPSVFIFPPSDEQLKSGTASVVCLLNNFYPREAKVQWKVDNALQSGNSQESVTEQDSKDSTYSLSSTLTLSKADYEKHKVYACEVTHQGLSSPVTKSFNRGEC				0.0866 nM									
